Data published in US20260132464A1, “CIRCULAR RNAS FOR THE DIAGNOSIS AND TREATMENT OF BRAIN DISORDERS” (UNM Rainforest Innovations, priority 2018, published 2026).

B1: circHomer1a: circRNA derived from exons 2-5 of Homer protein homolog 1 (HOMER1) (nucleic acid, listed as Homo sapiens)
chain: GGAACAACCTATCTTCAGCACTCGAGCTCATGTCTTCCAAATTGACCCAAACACAAAGAAGAACTGGGTACCCACCAGCAAGCATGCAGTTACTGTGTCTTATTTCTATGACAGCACAAGAAATGTGTATAGGATAATCAGTTTAGATGGCTCAAAGGCAATAATAAATAGTACCATCACCCCAAACATGACATTTACTAAAACATCTCAGAAGTTTGGCCAGTGGGCTGATAGCCGGGCAAACACCGTTTATGGATTGGGATTCTCCTCTGAGCATCATCTTTCGAAATTTGCAGAAAAGTTTCAGGAATTTAAAGAAGCTGCTCGACTAGCAAAGGAAAAATCACAAGAGAAGATGGAACTTACCAGTACACCTTCACAGGAATCCGCAGGCGGGGATCTTCAGTCTCCTTTAACACCGGAAAGTATCAACGGGACAGATGATGAAAGAACACCTGATGTGACACAGAACTCAGAGCCAAGGGCTGAACCAACTCAGAATGCATTGCCATTTTCACATAG
modifications: circular RNA
B2: circCUL4A: circRNA biomarker for brain disorders, increased in OFC of SCZ patients (nucleic acid, listed as Homo sapiens)
chain: GTCACGTCCCGTGTGGCTGTGGAGATCTCTGTGTGACTATGGAGGTTTCATCCATGTGGCTCTGAAGGTCTCTGTGTGACTATGGAGGTCGCGTCCCATGTGGCTGTGGAGGTCGCTGTGTGGCTATGGAG
modifications: circular RNA
notes: circRNA biomarker for brain disorders, increased in OFC of SCZ patients
B3: circADAM22: circRNA derived from the epilepsy-related gene ADAM metallopeptidase domain 22 (ADAM22) (nucleic acid, listed as Homo sapiens)
chain: GTGAATGTAAATGCGAGGACACGTGGTCCGGGTGCATAATGGGAGACACTGGCTATTATCTTCCTAAAAAGTTCACCCAGTGTAATATTGAAGAGTATCATGACTTCCTGAATAGTGGAGGTGGTGCCTGCCTTTTCAACAAACCTTCTAAGCTTCTTGATCCTCCTGAGTGTGGCAATGGCTTCATTGAAACTGGAGAGGAGTGTGATTGTGGAACCCCGGCCGAATGTGTCCTTGAAGGAGCAGAGTGTTGTAAGAAATGCACCTTGACTCAAGACTCTCAATGCAGTGACGGTCTTTGCTGTAAAAAGTGCAAGTTTCAGCCTATGGGCACTGTGTGCCGAGAAGCAGTAAATGATTGTGATATTCGTGAAACGTGCTCAGGAAATTCAAGCCAGTGTGCCCCTAATATTCATAAAATGGATGGATATTCATGTGATGGTGTTCAGGGAATTTGCTTTGGAGGAAGATGCAAAACCAGAGATAGACAATGCAAATACATTTGGGGGCAAAAGGTGACAGCATCAGACAAATATTGCTATGAGAAACTGAATATTGAAGGGACGGAGAAGGGTAACTGTGGGAAAGACAAAGACACATGGATACAGTGCAACAAACGGGATGTGCTTTGTGGTTACCTTTTGTGTACCAATATTGGCAATATCCCAAGGCTTGGAGAACTCGATGGTGAAATCACATCTACTTTAGTTGTGCAGCAAGGAAGAACATTAAACTGCAGTGGTGGGCATGTTAAGCTTGAAGAAGATGTAGATCTTGGCTATGTGGAAGATGGGACACCTTGTGGTCCCCAAATGATGTGCTTAGAACACAGGTGTCTTCCTGTGGCTTCTTTCAACTTTAGTACTTGCTTGAGCAGTAAAGAAGGCACTATTTGCTCAGGAAATGGAGTTTGCAGTAATGAGCTGAAGTGTGTGTGTAACAGACACTGGATAGGTTCTGATTGCAACACTTACTTCCCTCACAATGATGATGCAAAGACTGGTATCACTCTGTCTGGCAATGGTGTTGCTGGCACCAATATCATAATAGGCATAATTGCTGGCACCATTTTAGTGCTGGCCCTCATATTAGGAATAACTGCGTGGGGTTATAA
modifications: circular RNA
B4: circHomer1b: circRNA generated from the backsplicing of exons 2 and 3 of HOMER1 pre-mRNA (nucleic acid, listed as Homo sapiens)
chain: GGAACAACCTATCTTCAGCACTCGAGCTCATGTCTTCCAAATTGACCCAAACACAAAGAAGAACTGGGTACCCACCAGCAAGCATGCAGTTACTGTGTCTTATTTCTATGACAGCACAAGAAATGTGTATAGGATAATCAGTTTAGATGGCTCAAAGGCAATAATAAATAGTACCATCACCCCAAACATGACATTTACTAAAACATCTCAGAAGTTTGGCCAGTGGGCTGATAGCCGGGCAAACACCGTTTATGGATTGGGATTCTCCTCTGAGCATCATCTTTCGAAA
modifications: circular RNA
notes: circRNA generated from the backsplicing of exons 2 and 3 of HOMER1 pre-mRNA

Tests used:
circHomer1a = circHomer1a expression (circRNA qRT-PCR) after 2 day drug treatment of stem cell-derived mixed neuronal and astrocyte cultures; type: cell-based; conditions: 2 days treatment, human 6-9 month differentiated stem cell-derived mixed neuronal and astrocyte cultures
From the text: FIG. 6A is a representative bright-field image from 6-9 month differentiated human embryonic stem cell (hESC)-derived mature mixed neuronal and glial cultures.
FIG. 6B is an immunofluorescence image showing the presence of neurons (MAP2, red) and astrocytes (GFAP, green). Scale bar=100 μm.
05, two-tailed one sample t-test. The number of replicates is also shown within the graph.

[1] = system: stem cell-derived (iPSC) neuronal cultures from patients with SCZ and BD; experiment: circHomer1a levels in iPSC-derived neuronal cultures from SCZ and BD patients vs Control; type: cell-based, human
From the text: 05, two-tailed one sample t-test relative to the Control of the same developmental time-point.
05, two-tailed one sample t-test relative to the Control of the same developmental time-point. In all graphs individual samples are shown.

[2] = system: orbitofrontal cortex (OFC) of subjects with Bipolar Disorder; experiment: circRNA microarray profiling, OFC of subjects with Bipolar Disorder vs unaffected Controls (Table 3); parameters: species or system human
From the text: (§1) Example of circRNA array raw image is also shown.
(§2) The circRNAs in Tables 3 and 4 were identified by profiling circRNA expression in OFC RNA samples from 34 SCZ, 32 BD, and 34 unaffected control subjects from the Stanley Medical Research Institute.
Additional methods for identifying these brain disorder-associated circRNA biomarkers are discussed below.

[3] = system: OFC of subjects with SCZ and BD; experiment: circRNA-specific qRT-PCR in postmortem OFC of SCZ, BD and Control subjects; parameters: species or system human; conditions: for circRNA expression in OFC, BD patients vs unaffected Controls / circRNA expression in OFC, SCZ patients vs unaffected Controls: qRT-PCR, postmortem OFC
From the text: 05, based on general linear model correcting for RIN, PMI, RI, and brain pH. A schematic showing the multi-exonic nature of circADAM22 is also shown.
In FIGS. 4A-C, E-F **p<. 01, based on a Univariate General Linear Model corrected for RIN, PMI, RI, and brain pH.
A schematic of the exonic nature of circHomer1b is also shown. In all graphs individual SCZ, BD, and Control sample values are shown. ***p<. 001, based on general linear model correcting for RIN, PMI, RI, and brain pH.
(§3) Given that harsh RNAseR treatment can partially digest some circRNAs together with all linear RNAs, thus making circRNA screening semi-quantitative, the present disclosure also provides novel validated and sequence-verified circRNA-specific qRT-PCR primers aimed at the unique circRNA-specific splice junction, which enable the measurement of a subset of dysregulated circRNAs in non RNaseR-treated samples. These primers are shown in FIGS. 3C, 8B, and 14A, B (See also SEQ ID NOS. 2, 3, 5, 6, 8, 9, 11 or 12).

[4] = system: DLPFC of subjects with SCZ and BD; experiment: circRNA-specific qRT-PCR in postmortem DLPFC of SCZ, BD and Control subjects; parameters: species or system human
From the text: In all graphs individual SCZ, BD, and Control sample values are shown.
A schematic of the exonic nature of circHomer1b is also shown.
as §3

[5] = system: OFC of subjects with Schizophrenia; experiment: circRNA microarray profiling, OFC of subjects with Schizophrenia vs unaffected controls (Table 4); parameters: species or system human; conditions: relative to Control fold change of circRNA expression
From the text: as §1
FIG. 1C is a volcano plot showing differential circRNA expression in SCZ patients vs unaffected Controls (x-axis=relative to control log 2 fold changes; y-axis: negative log 10 of the p-values). Vertical lines correspond to >1.25-fold changes, and the horizontal line represents p<. 05. Example of validated circRNAs are shown in the graph.
as §2
All circRNA array experiments used for Tables 1-4 were performed by employing a commercially available circRNA microarray platform that uses 13,617 circRNA splice junction probes designed based on previous RNA sequencing and circRNA annotation data (Service sold by Arraystar Inc.). Analysis of circRNA changes in postmortem brain samples from the OFC of subjects with BD uncovered a subset of differentially expressed circRNAs (Table 3) a subset of which stemmed from genes related to synaptic transmission, neuronal development and migration, and short term memory (FIGS. 1A-C, 2A-B), whereas altered circRNAs in SCZ (Table 4 and FIGS. 1A-C, 2A-B) were associated, among others, with the mitogen-activated protein kinase (MAPK/ERK) and protein kinase B (PKB/AKT) pathways. […]

| Molecule | circHomer1a expression relative to Vehicle (circHomer1a) | circRNA expression in OFC, BD patients vs unaffected Controls [3] | circRNA expression in OFC, SCZ patients vs unaffected Controls [3] | circRNA expression in DLPFC, BD patients vs unaffected Controls [4] | further results |
| --- | --- | --- | --- | --- | --- |
| O=C(CCCN1CCC(O)(c2ccc(Cl)cc2)CC1)c1ccc(F)cc1 [Haloperidol] | lack of effect | – | – | – | – |
| CCCC(CCC)C(=O)O [Valproic acid, valproic acid] | increase | – | – | – | – |
| B1 | – | reduced | reduced | reduced | circHomer1a expression in iPSC neuronal cultures, patients vs Control [1]: reduced; Fold BD OFC ([2]; circRNA expression, OFC of subjects with Bipolar Disorder vs unaffected Controls): 0.6440; correlation of expression with duration of illness ([3]; SCZ and BD patients (FIGS. 4H, 5D; OFC and DLPFC)): positively correlated; correlation of expression with age of onset of disease ([3]; SCZ patients (FIGS. 4G, 5C; OFC and DLPFC)): positively correlated; circRNA expression in DLPFC, SCZ patients vs unaffected Controls ([4]; SCZ): reduced |
| B2 | – | unchanged | increased expression | – | Fold SCZ OFC [5]: 1.4626 |
| B3 | – | decreased expression | unchanged | – | Fold BD OFC ([2]; circRNA expression in OFC, Bipolar Disorder vs unaffected Controls): 0.5247 |
| B4 | – | reduced | reduced | not | – |
